Two substances from PMC3263374 can be followed below.

This experiment concerns the target ApoE 130-149 (Homo sapiens) (UniProt P02649). Nature of the experiment: NMR. The conditions noted are these: modification not given.

ApoE 130-149 (Homo sapiens), sequence (P02649 130-149): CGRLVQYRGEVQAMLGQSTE

Consider LDLR LA4 (in LA45), P01130, for which the Kd was found to be 405 µM.
Under LDLR LA5 (in LA45), P01130 stands 730 µM.

A word on the Kd: it is the equilibrium constant for the complex coming apart. A higher Kd goes with a looser complex.
